Residue numbers refer to the chain shown, from its start.
Experiments:
[1] = biological target: T1, recombinant human TNFR2 antigen (Kangdai, batch number A100114U) (human, UniProt P20333 23-257); assay: ELISA, plate coated with recombinant human TNFR2 antigen
T1 construct: also called hTNFR2; TNFR2-FC (Shanghai Saijin Biopharmaceutical Co., Ltd., Qiangke, catalog number A100114U); not shown: Fc part of the bought TNFR2-FC
T1 sequence (looked up): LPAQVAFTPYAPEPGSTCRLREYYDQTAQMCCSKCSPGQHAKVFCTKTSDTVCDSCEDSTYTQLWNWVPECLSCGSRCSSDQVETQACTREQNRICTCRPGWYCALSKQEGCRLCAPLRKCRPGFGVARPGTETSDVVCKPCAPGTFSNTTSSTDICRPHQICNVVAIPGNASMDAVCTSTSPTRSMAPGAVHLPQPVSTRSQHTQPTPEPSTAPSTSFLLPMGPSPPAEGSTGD
Protocol: (§1) After TMB development, the detection was performed using microplate reader: dual wavelength 450 nm/655 nm detection, and results were calculated by OD₄₅₀-OD₆₅₅.

[2] = biological target: T2, recombinant mouse TNFR2 (mTNFR2) (Sino Biological, 50128-M08H) (mouse, UniProt P25119 23-258); assay: ELISA, plate coated with recombinant mouse TNFR2
T2 sequence (looked up): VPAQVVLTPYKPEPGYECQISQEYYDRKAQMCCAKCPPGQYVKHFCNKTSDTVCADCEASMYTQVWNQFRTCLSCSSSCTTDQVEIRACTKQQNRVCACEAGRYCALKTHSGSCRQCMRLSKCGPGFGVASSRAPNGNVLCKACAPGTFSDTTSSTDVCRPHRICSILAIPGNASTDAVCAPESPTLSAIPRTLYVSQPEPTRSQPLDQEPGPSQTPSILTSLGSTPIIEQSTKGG
Protocol: as §1
(§2) Using the same method as above, the TNFR2 antigens of cynomolgus monkey and mouse (Sino Biological, 90102-C021 and 50128-M08H) were coated separately. The anti-human TNFR2 mouse monoclonal antibodies to be tested were gradient diluted, then added with the anti-mouse Fab segment secondary antibody (Jackson Immuno Research, 515-035-072), and TMB development was performed. ELISA was used to detect the binding of 8 strains of mouse monoclonal antibodies to recombinant mouse TNFR2 (mTNFR2) and cynomolgus monkey TNFR2 (Cyno. TNFR2).

[3] = biological target: T3, human TNFR2 on the cell membrane (human, UniProt P20333 23-461); assay: flow cytometry, TNFR2-CHO cells
T3 construct: whole, on cells; One molecule for all cell formats; also called TNFR2-CHO cells; CHO-TNFR2
T3 sequence (looked up): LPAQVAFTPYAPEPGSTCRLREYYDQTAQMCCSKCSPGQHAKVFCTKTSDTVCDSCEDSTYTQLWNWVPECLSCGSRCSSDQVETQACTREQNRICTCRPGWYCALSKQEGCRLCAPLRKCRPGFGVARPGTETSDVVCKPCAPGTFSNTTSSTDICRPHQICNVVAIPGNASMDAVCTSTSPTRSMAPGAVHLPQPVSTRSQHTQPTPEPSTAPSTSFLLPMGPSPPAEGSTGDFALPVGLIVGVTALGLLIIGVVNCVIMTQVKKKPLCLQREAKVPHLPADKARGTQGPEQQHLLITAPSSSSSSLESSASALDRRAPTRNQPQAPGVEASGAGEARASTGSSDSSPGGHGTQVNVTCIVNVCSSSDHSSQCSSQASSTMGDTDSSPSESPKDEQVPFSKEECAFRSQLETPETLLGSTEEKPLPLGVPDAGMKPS
Protocol: (§3) Purified anti-human TNFR2 mouse monoclonal antibodies were co-incubated with TNFR2 overexpressing CHO cell lines (obtained routinely as follows: PCDNA3.4-TNFR2 was transfected into CHO cells, and stable high expression TNFR2 cell lines were obtained through drug screening and monoclonal sorting), and then stained. The antibody binding intensity was analyzed by flow cytometry. The specific steps are as follows: TNFR2-CHO cells were counted, centrifuged, resuspended, then added to a 96-deep well plate, and the supernatant was discarded. The anti-TNFR2 antibodies to be tested were gradient diluted, added to the 96-deep well plate. […] The samples were detected using Beckman CytoFLEX.

[4] = biological target: T3, human TNFR2 on the cell membrane; assay: flow cytometry on TNFR2-CHO cells
Protocol: as §3

[5] = biological target: T4, recombinant cynomolgus monkey TNFR2 (Cyno. TNFR2) (Sino Biological, 90102-C021) (cynomolgus monkey, UniProt A0A2K5VET2 132-366); assay: ELISA, plate coated with recombinant cynomolgus monkey TNFR2
T4 sequence: T1 sequence (looked up) with S16G, S36P, P117Q, N164H, E210A, S216G, M223V
Protocol: as §1, §2

[6] = biological target: T1, recombinant human TNFR2 antigen …; assay: ELISA, coated recombinant human TNFR2
Protocol: as §1

[7] = biological target: T4, recombinant cynomolgus monkey TNFR2 …; assay: ELISA, coated cynomolgus TNFR2
Protocol: as §1, §2

B1: anti-human TNFR2 mouse monoclonal antibody 16D2 (antibody, V domains shown)
VH: EVQLQQSEPELVKPGASVKIPCKASGYTFTDYNMDWVKQSHGKSLEWIGDINPNNGVTIYNQKFKGKATLTVDKSSSTAYMELRSLTSEDTAVYYCVILEYFDYWGQGTTLTVSS
VL: DIVMTQSTSSMSVSLGDTVSITCHASQGISSNIGWLQQKPGKSFKGLIYHGTKLEDGVPSRFSGSGSGADYSLTISSLESEDFADYYCVQYAQFPRTFGGGTKLEIK
- EC50 [1]: 0.146 nM
- binding result [2]: no binding
- EC50 [3]: 5.71 µg/mL
- EC50 [4]: 38.3 nM
- EC50 [5]: 0.248 nM
- EC50 [6]: 0.0218 µg/mL
- EC50 [7]: 0.0371 µg/mL
